pKd: −log10 of the molar value.

The source of these data is PMC9493720.

In assay [1] the target is human surfactant protein A (SP-A), native, supratrimeric (human) (UniProt Q8IWL2). Briefly: native gel or EMSA + other: electron microscopy + AUC; degree of oligomerization of isolated SP-A; electrophoresis under nondenaturing conditions, electron microscopy and analytical ultracentrifugation.
The target is the same in assay [2]. Briefly: other fluorescence titration; intrinsic tryptophan fluorescence of SP-A (15 nM) or rfhSP-A (0.3 μM), polymyxin added at increasing concentrations, 25°C, 5 mM Tris-HCl pH 7.4 with 150 mM NaCl; apparent KD from the Hill equation.
Assay [3] has as its target recombinant trimeric fragment of human SP-A1 (rfhSP-A) (human). In words: other fluorescence titration; intrinsic tryptophan fluorescence of rfhSP-A, PMB added, 25°C, 5 mM Tris-HCl pH 7.4 without NaCl; apparent KD from the Hill equation.

For the substance “human surfactant protein A (SP-A), native, supratrimeric (from UniProt Q8IWL2 21-248) (natural protein)”, the stoichiometry N in assay [1] is greater than 18. As for polymyxin B (PMB) (peptide), the pKd is 6.49 in assay [2] and 5.86 in assay [3]. As to polymyxin B nonapeptide (PMBN), the pKd in assay [2] is 6.59.
